Positions count from the first letter of the chain named. Names and notes keep the numbering of the source.
Legend:
Assay in all cases: HEK293-F co-expression, Protein A purification, non-reducing SDS-PAGE densitometry
[1] = target: FcCH3B, A205 (E357N/K370R)
[2] = target: T1, FcCH3B, B215 (D399W/K392G/K409M)
T1 chain: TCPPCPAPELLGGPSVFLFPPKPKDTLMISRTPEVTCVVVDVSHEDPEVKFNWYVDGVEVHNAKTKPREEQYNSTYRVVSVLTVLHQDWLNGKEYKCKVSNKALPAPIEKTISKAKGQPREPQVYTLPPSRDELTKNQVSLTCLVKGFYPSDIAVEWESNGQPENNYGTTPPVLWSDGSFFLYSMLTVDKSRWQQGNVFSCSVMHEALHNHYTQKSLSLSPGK

[3] = target: FcCH3B, A216 (E357N)
[4] = target: T2, FcCH3B, B240 (D399G/K392G/K409M)
T2 chain: T1 chain with W175G

[5] = target: FcCH3B, A210 (E357N/K370H)
[6] = target: FcCH3B, A241 (E357N)

B1: scFv-FcCH3A, A205 (E357D/S364W/K370E) (protein)
chain: T1 chain with E133D, S140W, K146E, G168K, W175D, M185K
Work on B1 yielded a (scFv-Fc)(Fc) (heterodimer)(%) [1] of 88.8%.

B2: scFv-FcCH3A, B215 (K392R/K409R/D399L) (protein)
chain: T1 chain with G168R, W175L, M185R
With B2 the (scFv-Fc)(Fc) (heterodimer)(%) [2] was 78.1%.

B3: scFv-FcCH3A, A216 (E357G/S364W/K370E) (protein)
chain: T1 chain with E133G, S140W, K146E, G168K, W175D, M185K
With B3 the (scFv-Fc)(Fc) (heterodimer)(%) [3] was 80.3%.

B4: scFv-FcCH3A, B240 (K392S/K409R/D399L) (protein)
chain: T1 chain with G168S, W175L, M185R
B4 gave a (scFv-Fc)(Fc) (heterodimer)(%) [4] of 83.3%.

B5: scFv-FcCH3A, A210 (E357A/S364Y/K370E) (protein)
chain: T1 chain with E133A, S140Y, K146E, G168K, W175D, M185K
B5 showed a (scFv-Fc)(Fc) (heterodimer)(%) [5] of 80.8%.

B6: scFv-FcCH3A, A241 (E357N/S364W/K370E) (protein)
chain: T1 chain with E133N, S140W, K146E, G168K, W175D, M185K
With B6 the (scFv-Fc)(Fc) (heterodimer)(%) [6] was 81%.

Reference: patent publication US20180346600
